In patent EP3196312B1, “EFFICIENT CONVERSION OF METHYLGLYOXAL INTO HYDROXYACETONE USING NOVEL ENZYMES AND APPLI CATIONS THEREOF” (Metabolic Explorer, priority 2016, dated 2017):

How the values were obtained:
CC(=O)C=O [1] = test: Methylglyoxal reductase kinetic parameters of purified enzyme (NAD(P)H consumption at 340 nm); assay type: biochemical, Escherichia coli; details: other: substrate methylglyoxal 0.1-40 mM, cofactor NADH, 100mM MES-KOH (pH6.5) 0.1mM FeSO4 30mM ammonium sulfate, 30°C, pH 6.5
Protocol: For strain 14, the purification protocol was previously described in patent application WO 2015/173247. Table 3: Protein storage buffer
(§1) Methylglyoxal reductase activity (MGR) was determined by measuring the consumption of NAD(P)H at 340 nm on a spectrophotometer at 30°C (λ340 = 6290 M^-1 cm^-1). The reaction mixture (1mL) containing assay buffer and purified enzyme was incubated for 5 min at 30°C. Then, 0.1-40 mM methylglyoxal was added to start the reaction. One unit of enzyme activity was defined as the amount of enzyme catalyzing the decrease of 1µmol of NAD(P)H per min. Kinetic parameters were determined with Sigmaplot.

CC(=O)C=O [2] = test: as above; assay type: biochemical, Escherichia coli; details: other: substrate methylglyoxal 0.1-40 mM, cofactor NADPH, pH 7.5
Protocol: Except for the strain 18, the proteins were purified from the crude cell-extract by affinity on a Profinity column (BIORAD, Bio-Scale Mini Profinity exact cartridge 5 ml) according to the protocol recommended by the manufacturer. The crude extract was loaded on a 5 ml Profinity exact cartridge equilibrated with 100 mM potassium phosphate pH 7.6. The column was washed with 10 column volumes of the same buffer and incubated 30min with 100 mM potassium phosphate pH 7.6, 100 mM fluoride at room temperature. The protein was eluted from the column with 2 column volumes of 100 mM potassium phosphate pH 7.6. The tag remained tightly bound to the resin and the purified protein was released. The fractions containing the protein were pooled, concentrated and loaded on a gel filtration column (Superdex 200 10/300 GL column, GE Healthcare) equilibrated with different storage buffers (Table 3). Protein concentration was measured using the Bradford protein assay.
as §1

Escherichia coli GldA (glycerol dehydrogenase) variant GldA*(A160T), SEQ ID NO: 17 (Escherichia coli K-12; A160T)
Km (CC(=O)C=O [1]): 3.17 mM | kcat/Km (CC(=O)C=O [1]): 7800 M⁻¹ s⁻¹

Escherichia coli YdjG variant YdjG*(D232E), SEQ ID NO: 101 (Escherichia coli K-12; D232E)
Km (CC(=O)C=O [2]; 20mM Hepes (pH7.5), 30°C): 3.25 mM | kcat/Km (CC(=O)C=O [2]; 20mM Hepes (pH7.5), 30°C): 10 M⁻¹ s⁻¹

Escherichia coli YqhD variant YqhD*(G149E), SEQ ID NO: 9 (Escherichia coli K-12; G149E)
Km (CC(=O)C=O [2]; 20mM Hepes (pH7.5) 0.1mM ZnSO4, 30°C): 2.92 mM
